B1: gstRabM69 (gst fused to amino acids 1-69 of the rabies virus M protein) (other)
chain: MNLLRKIVKNRRDEDTQKSSPASAPLDDDDLWLPPPEYVPLKELTGKKNMRNFCINGRVKVCSPNGYSF
B2: gstRabM52WT (gst fused to amino acids 1-52, wild type, of the rabies virus M protein) (other)
chain: MNLLRKIVKNRRDEDTQKSSPASAPLDDDDLWLPPPEYVPLKELTGKKNMRN
B3: gstVSVM74WT (gst fused to the N-terminal 74 amino acids of VSV (Ind.) M protein, wild type PY motif) (other)
chain: MSSLKKILGLKGKGKKSKKLGIAPPPYEEDTSMEYAPSAPIDKSYFGVDEMDTYDPNQLRYEKFFFTVKMTVRS
B4: gstRabM202 (gst fused to amino acids 1-202, full-length, of the rabies virus M protein) (other)
chain: MNLLRKIVKNRRDEDTQKSSPASAPLDDDDLWLPPPEYVPLKELTGKKNMRNFCINGRVKVCSPNGYSFRILRHILKSFDEIYSGNHRMIGLVKVVIGLALSGSPVPEGLNWVYKLRRTFIFQWADSRGPLEGEELEYSQEITWDDDTEFVGLQIRVIAKQCHIQGRVWCINMNPRACQLWSDMSLQTQRSEEDKDSSLLLE

Legend:
[1] = target: T1, gst alone (glutathione-S-transferase expressed from pGEX-2TK) (UniProt P08515 1-218 = GST); assay: far-western blot, 32P-labelled gst probe
[2] = target: VSV M protein (form used not stated; discussion of Example 9, data not shown) (vesicular stomatitis virus, UniProt P03519 1-229); assay: far-western blot presumably; data not shown
[3] = target: T1, gst alone (glutathione-S-transferase …); assay: far-western blot, 32P-labelled gst probe on bacterial extract

T1 sequence (P08515 whole entry): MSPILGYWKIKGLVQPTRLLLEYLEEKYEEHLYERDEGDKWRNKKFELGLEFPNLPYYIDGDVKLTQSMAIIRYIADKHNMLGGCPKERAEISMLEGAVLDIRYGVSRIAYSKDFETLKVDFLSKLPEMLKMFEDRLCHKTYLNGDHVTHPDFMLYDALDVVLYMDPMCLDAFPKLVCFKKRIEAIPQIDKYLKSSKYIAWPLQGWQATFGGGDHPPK

Row | Binder | binding result [1] | further results
1 | B1 | no binding | –
2 | TGLPTPWTVRYSKSKKREYFFNPETKHSQWEEPEG (other, domain: WW) [WW domain from ESS 1] | – | binding result [2]: no binding
3 | B2 | no binding | –
4 | B3 | – | binding result [3]: no binding
5 | B4 | no binding | –

From patent US20030232325A1 (MOUNT SINAI SCHOOL OF MEDICINE OF NEW YORK UNIVERSITY, published 2003)
